Assay results reported in publication PMC4066763, “Programmable DNA-binding proteins from Burkholderia provide a fresh perspective on the TALE-like repeat domain”.

T1: Bat1 (BurrH) (Burkholderia rhizoxinica HKI 0454, UniProt E5AV36 1-771)
T1 sequence: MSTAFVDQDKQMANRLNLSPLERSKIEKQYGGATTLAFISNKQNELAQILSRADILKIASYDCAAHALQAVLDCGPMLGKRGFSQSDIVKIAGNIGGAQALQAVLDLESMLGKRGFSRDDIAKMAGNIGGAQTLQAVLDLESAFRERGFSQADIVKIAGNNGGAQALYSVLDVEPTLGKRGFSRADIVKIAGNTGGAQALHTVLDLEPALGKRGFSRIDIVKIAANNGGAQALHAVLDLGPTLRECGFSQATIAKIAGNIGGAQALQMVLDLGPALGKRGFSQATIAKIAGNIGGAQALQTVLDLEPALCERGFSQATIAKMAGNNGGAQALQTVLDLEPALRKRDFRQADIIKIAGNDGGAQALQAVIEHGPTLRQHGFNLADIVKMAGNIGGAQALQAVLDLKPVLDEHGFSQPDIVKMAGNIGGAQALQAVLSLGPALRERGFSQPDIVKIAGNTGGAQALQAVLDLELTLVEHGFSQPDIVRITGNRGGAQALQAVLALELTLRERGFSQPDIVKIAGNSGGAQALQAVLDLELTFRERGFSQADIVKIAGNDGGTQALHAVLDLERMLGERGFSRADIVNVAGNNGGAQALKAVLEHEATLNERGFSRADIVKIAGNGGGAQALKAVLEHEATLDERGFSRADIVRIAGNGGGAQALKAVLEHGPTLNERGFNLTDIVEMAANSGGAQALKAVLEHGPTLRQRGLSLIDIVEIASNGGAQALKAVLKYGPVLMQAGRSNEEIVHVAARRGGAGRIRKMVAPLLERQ

T2: Bat2 (Burkholderia rhizoxinica HKI 0454, UniProt E5AW45 1-997)
T2 sequence: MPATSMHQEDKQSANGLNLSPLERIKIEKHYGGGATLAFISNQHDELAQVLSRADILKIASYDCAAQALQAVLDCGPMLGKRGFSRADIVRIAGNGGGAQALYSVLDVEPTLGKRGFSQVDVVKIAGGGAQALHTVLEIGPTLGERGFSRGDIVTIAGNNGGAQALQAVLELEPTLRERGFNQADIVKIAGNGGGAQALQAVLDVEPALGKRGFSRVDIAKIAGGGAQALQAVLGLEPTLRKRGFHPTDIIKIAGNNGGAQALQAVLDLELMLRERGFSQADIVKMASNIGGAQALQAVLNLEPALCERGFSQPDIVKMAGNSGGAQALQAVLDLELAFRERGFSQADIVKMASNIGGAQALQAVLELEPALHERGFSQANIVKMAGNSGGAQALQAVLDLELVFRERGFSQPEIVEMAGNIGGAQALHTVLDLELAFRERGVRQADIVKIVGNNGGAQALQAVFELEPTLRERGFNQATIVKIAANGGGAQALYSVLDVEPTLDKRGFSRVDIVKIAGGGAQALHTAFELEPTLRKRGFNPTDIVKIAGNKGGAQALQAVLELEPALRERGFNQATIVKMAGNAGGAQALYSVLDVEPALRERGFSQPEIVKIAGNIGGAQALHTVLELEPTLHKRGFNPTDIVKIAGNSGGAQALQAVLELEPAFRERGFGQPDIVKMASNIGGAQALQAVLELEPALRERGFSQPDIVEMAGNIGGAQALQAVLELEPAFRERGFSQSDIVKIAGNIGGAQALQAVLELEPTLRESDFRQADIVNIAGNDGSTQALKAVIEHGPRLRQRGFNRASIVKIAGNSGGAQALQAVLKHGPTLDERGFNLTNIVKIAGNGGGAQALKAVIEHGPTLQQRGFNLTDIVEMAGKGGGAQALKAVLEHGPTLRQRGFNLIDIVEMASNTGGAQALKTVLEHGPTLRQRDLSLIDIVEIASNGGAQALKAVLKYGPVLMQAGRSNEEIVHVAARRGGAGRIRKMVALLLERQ

T3: Bat3 (Burkholderia rhizoxinica HKI 0454, UniProt E5AW43 1-311)
T3 sequence: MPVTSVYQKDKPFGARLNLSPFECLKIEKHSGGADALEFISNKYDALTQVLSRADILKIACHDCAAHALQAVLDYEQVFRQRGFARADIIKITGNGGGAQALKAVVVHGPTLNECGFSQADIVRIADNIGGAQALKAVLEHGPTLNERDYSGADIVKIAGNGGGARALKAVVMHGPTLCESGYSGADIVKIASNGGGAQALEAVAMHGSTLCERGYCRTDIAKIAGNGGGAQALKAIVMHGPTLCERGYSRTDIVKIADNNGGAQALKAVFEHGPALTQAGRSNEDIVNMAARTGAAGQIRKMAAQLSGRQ


What was measured:
Bat1 (BurrH) [1] = target: T1, Bat1 (BurrH); experiment: MST; 10 mM MgCl2; EMSA: 15 mM Tris-Cl, 75 mM KCl, 2.5 mM DTT, 0.063% NP-40, 62.5 ng/ul dI.dC, 0.125 mg/ml BSA, 6.25% glycerol, 6.25 mM MgCl2, 0.125 mM EDTA, room temp, gel at 4 C; MST: 20 mM Tris pH 7.4, 150 mM NaCl, 10 mM MgCl2, 0.05% Tween, room temp, 100 nM labelled Bat1; conditions: protein: recombinant; tags: N-terminal His; label: none (stated unlabelled)
Bat2 = target: T2, Bat2; experiment: EMSA; 100 nM protein, 10 nM DNA, poly dI.dC; EMSA: 15 mM Tris-Cl, 75 mM KCl, 2.5 mM DTT, 0.063% NP-40, 62.5 ng/ul dI.dC, 0.125 mg/ml BSA, 6.25% glycerol, 6.25 mM MgCl2, 0.125 mM EDTA, room temp, gel at 4 C; MST: 20 mM Tris pH 7.4, 150 mM NaCl, 10 mM MgCl2, 0.05% Tween, room temp, 100 nM labelled Bat1; conditions: protein: recombinant; tags: N-terminal His; label: 5' Cy5 forward strand
Bat3 = target: T3, Bat3; experiment: as above; conditions: protein: recombinant; tags: N-terminal His; label: 5' Cy5 forward strand
Bat1 (BurrH) [2] = target: T1, Bat1 (BurrH); experiment: as above; conditions: protein: recombinant; tags: N-terminal His; label: 5' Cy5 forward strand

Row | Binder | binding result (Bat1 (BurrH) [1]) | binding result (Bat2) | binding result (Bat3) | other results
1 | BEBat1 G-0, MST (dsDNA) DNA 1: TAGACGAAGAGAAGCAAAGACGTTATATGC DNA 2: GCATATAACGTCTTTGCTTCTCTTCGTCTA | binds | – | – | –
2 | BEBat1 (T0), EMSA (dsDNA) DNA 1: TAGACTAAGAGAAGCAAAGACGTTATATGC DNA 2: GCATATAACGTCTTTGCTTCTCTTAGTCTA | – | no binding | no binding | –
3 | BEBat1 T-0, MST (dsDNA) DNA 1: TAGACTAAGAGAAGCAAAGACGTTATATGC DNA 2: GCATATAACGTCTTTGCTTCTCTTAGTCTA | – | – | – | Kd (Bat1 (BurrH) [1]): 132 nM
4 | BEBat2, EMSA (dsDNA) DNA 1: TAGACTTTGTTGAAAAGTTGTAAAAACATTATATGC DNA 2: GCATATAATGTTTTTACAACTTTTCAACAAAGTCTA | – | binds | no binding | binding result (Bat1 (BurrH) [2]): no binding
5 | BEBat3, EMSA (dsDNA) DNA 1: TAGACATAGATTATTATATTTGTAACAAGTAAATGC DNA 2: GCATTTACTTGTTACAAATATAATAATCTATGTCTA | – | no binding | no binding | binding result (Bat1 (BurrH) [2]): no binding
6 | BEBat1 A-0, MST (dsDNA) DNA 1: TAGACAAAGAGAAGCAAAGACGTTATATGC DNA 2: GCATATAACGTCTTTGCTTCTCTTTGTCTA | binds | – | – | –
7 | BEBat1 C-0, MST (dsDNA) DNA 1: TAGACCAAGAGAAGCAAAGACGTTATATGC DNA 2: GCATATAACGTCTTTGCTTCTCTTGGTCTA | binds | – | – | –
